The results in this text go back to patent US20240082414A1 (Eli Lilly, published 2024).

Changes are numbered by the printed parent chain.

First the molecules themselves.
B1: anti-human TNFα antibody Ab3 (antibody, human IgG1, kappa, V domains shown)
VH: QVQLVQSGAEVKKPGASVKVSCKASGYTFTGYYMHWVRQAPGQGLEWMGWINPYTGGTKYAQKFQGRVTMTRDTSISTAYMELSRLRSDDTAVYYCARDLYGSSNYGMDVWGQGTTVTVSS
VL: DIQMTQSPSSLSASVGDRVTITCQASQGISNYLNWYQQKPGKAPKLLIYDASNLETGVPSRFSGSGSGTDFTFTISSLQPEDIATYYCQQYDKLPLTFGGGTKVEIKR
notes: Human IgG1; expressed in CHO cells
B2: anti-human TNFα antibody Ab1 (antibody, human IgG1, kappa, V domains shown)
VH: B1 VH with M34I, K59N, M108G
VL: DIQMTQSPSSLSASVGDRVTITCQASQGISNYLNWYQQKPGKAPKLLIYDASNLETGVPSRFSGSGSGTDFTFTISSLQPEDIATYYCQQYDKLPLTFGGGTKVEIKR
notes: Human IgG1 with engineered cysteines at heavy chain positions 124 and 378 (EU numbering); expressed in CHO cells; also called anti-human TNFα Ab1; unconjugated anti-human TNFα Ab1
B3: anti-human TNFα antibody Ab2 (antibody, human IgG1, kappa, V domains shown)
VH: B1 VH with M34I, K59N
VL: not shown
notes: as for B1
B4: anti-human TNFα antibody Ab4 (antibody, human IgG1, kappa, V domains shown)
VH: B1 VH
VL: not shown
notes: as for B1
B5: anti-human TNFα antibody Ab5 (antibody, human IgG1, kappa, V domains shown)
VH: B1 VH
VL: DIQMTQSPSSLSASVGDRVTITCQASQGIRNYLNWYQQKPGKAPKLLIYDASNLETGVPSRFSGSGSGTDFTFTISSLQPEDIATYYCQQYDKLPLTFGGGTKVEIKR
notes: as for B1
B6: anti-human TNFα antibody Ab6 (antibody, human IgG1, kappa, V domains shown)
VH: B1 VH with M34I, K59N, L100I, M108G
VL: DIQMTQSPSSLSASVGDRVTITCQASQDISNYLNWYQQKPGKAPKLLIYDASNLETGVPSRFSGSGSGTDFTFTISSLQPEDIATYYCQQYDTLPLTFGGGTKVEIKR
notes: Human IgG1

T2 sequence (P51742 77-233 limits assumed): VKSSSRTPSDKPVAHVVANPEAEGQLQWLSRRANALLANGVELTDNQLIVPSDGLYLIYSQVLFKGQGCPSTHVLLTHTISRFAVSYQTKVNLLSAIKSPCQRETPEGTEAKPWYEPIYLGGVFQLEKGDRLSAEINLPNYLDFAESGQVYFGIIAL
T1 sequence (P01375 77-233 limits assumed): as the sequence (P51742 77-233 limits assumed) above, with K2R, E21Q, S30N, T44R, I49V, D53E, F83I, T109A, L138R, N140D counted along it
T3 sequence (P48094 77-233 limits assumed): as the sequence (P51742 77-233 limits assumed) above, with K2R, E21Q, S30N, I49V, D53E, T72N, F83I, T109A, N140D counted along it

The first assay deals with TNFα expressed on human monocyte-derived dendritic cells (human, UniProt P01375 1-233). In words: cell-based or functional assay.
Sequence of TNFα expressed on human monocyte-derived dendritic cells (P01375 whole entry): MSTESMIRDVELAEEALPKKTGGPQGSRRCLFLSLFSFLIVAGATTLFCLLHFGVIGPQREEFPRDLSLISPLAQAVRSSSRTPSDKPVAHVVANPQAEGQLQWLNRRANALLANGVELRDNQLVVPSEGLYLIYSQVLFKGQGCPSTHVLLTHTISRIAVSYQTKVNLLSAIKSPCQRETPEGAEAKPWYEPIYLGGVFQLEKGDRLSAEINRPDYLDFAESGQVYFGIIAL
On to B1, for which the “Immature Dendritic Cell Internalization Index” value amounted to 20 and the “Mature Dendritic Cell Internalization Index” value was 35.2.

For the molecule B2, the “Immature Dendritic Cell Internalization Index” value came out at 19.4 and the “Mature Dendritic Cell Internalization Index” value came to 26.7.

In the case of B3, the “Immature Dendritic Cell Internalization Index” value came to 21.9 and the “Mature Dendritic Cell Internalization Index” value was 38.3.

In the case of B4, the “Immature Dendritic Cell Internalization Index” value worked out at 33.6 and the “Mature Dendritic Cell Internalization Index” value was 43.1.

For the molecule B5, the “Immature Dendritic Cell Internalization Index” value is 54.6 and the “Mature Dendritic Cell Internalization Index” value was 52.7.

A further assay concerns the target T1, human TNFα (recombinant, soluble) (human, UniProt P01375 77-233). In words: cell-based or functional assay.
In the case of B2, the “Inhibition of soluble human TNFα induced apoptosis IC50 (L929 cells)” value came out at 0.089 µg/mL.

In the next assay the target is membrane human TNFα (non-cleavable TNFα construct stably transfected into CHO cells) (human, UniProt P01375 1-233). In words: cell-based or functional assay.
As to B1, the “Inhibition of membrane human TNFα-induced apoptosis IC50 (L929 cells)” value turned out to be 0.15 µg/mL.

As for B3, the “Inhibition of membrane human TNFα-induced apoptosis IC50 (L929 cells)” value turned out to be 0.13 µg/mL.

With B4, the “Inhibition of membrane human TNFα-induced apoptosis IC50 (L929 cells)” value amounted to 0.13 µg/mL.

Take B5: the “Inhibition of membrane human TNFα-induced apoptosis IC50 (L929 cells)” value turned out to be 0.2 µg/mL.

Another assay deals with T1, human TNFα (recombinant, soluble). Kind of assay: cell-based or functional assay. This is another data set of the same source.
For the molecule B1, the “Inhibition of soluble human TNFα induced apoptosis IC50 (L929 cells)” value was 0.19 µg/mL.

Consider B2, for which the “Inhibition of soluble human TNFα induced apoptosis IC50 (L929 cells)” value is 0.16 µg/mL.

For the molecule B3, the “Inhibition of soluble human TNFα induced apoptosis IC50 (L929 cells)” value came out at 0.13 µg/mL.

Consider B4, for which the “Inhibition of soluble human TNFα induced apoptosis IC50 (L929 cells)” value came out at 0.19 µg/mL.

As to B5, the “Inhibition of soluble human TNFα induced apoptosis IC50 (L929 cells)” value worked out at 0.22 µg/mL.

The target is the same in a further assay. Kind of assay: antigen-down ELISA, plate coated with human TNFα. How it is done: (§1) Example 2a. […] Briefly, 384-well high binding plates (Greiner Bio-one #781061) were coated with 20 μL per well of 1 μg/mL of human TNFα (Syngene), 2 μg/mL of rhesus macaque TNFα (R&D Systems, Cat# 1070-RM), or 2 μg/mL of canine TNFα (R&D Systems, Cat# 1507-CT/CF) diluted in carbonate buffer pH 9.3 (0.015 M Na₂CO₃ and 0.035 M NaHCO₃) and stored at 4° C. overnight. […] The plates were incubated at 37° C. for 90 min, then washed three times in PBS/0.1% Tween. 20 μL of secondary antibody reagent goat-anti-human-kappa-AP (Southern Biotech, Cat# 2060-04) with 1:1500 dilution was added to the plate and incubated for 45 minutes at 37° C. Plates were washed 3 times as above, and 20 μL of alkaline phosphatase substrate solution diluted to 1:35 in molecular grade water was added to every well. Once the color developed (approximately 15-30 min), plates were read at 560 nm OD on a Molecular Device Spectramax plate reader and data was acquired using Softmax Pro 4.7 software. Data analysis was performed in GraphPad Prism.
Broadly, the EC50 is the concentration at which the effect is half-maximal. Take B2: the EC50 is 0.28 µg/mL.

The target is the same in another assay. Kind of assay: antigen-down ELISA, plate coated with human TNFα. This is another data set of the same source. How it is done:
as §1
On the technique in general: In an ELISA, binding on a coated surface is turned into a signal by an enzyme label.
Consider B1, for which the EC50 worked out at 0.216 µg/mL.

As to B2, the EC50 was 0.223 µg/mL.

Regarding B3, the EC50 was determined as 0.222 µg/mL.

Regarding B6, the half-maximal effective concentration (EC50) was 0.131 µg/mL.

For the molecule B4, the EC50 came out at 0.213 µg/mL.

For the molecule B5, the EC50 amounted to 0.22 µg/mL.

A further assay has as its target T2, canine TNFα (canine, UniProt P51742 77-233).
T2 construct: Bought protein; also called Canine TNFα (R&D Systems, Cat# 1507-CT/CF)
Kind of assay: antigen-down ELISA, plate coated with canine TNFα. How it is done: as §1
The molecule B1 registered an EC50 of 0.24 µg/mL.

Regarding B2, the EC50 stood at 0.22 µg/mL.

B3 registered an EC50 of 0.24 µg/mL.

Take B6: the EC50 is 0.162 µg/mL.

Consider B4, for which the EC50 is 0.231 µg/mL.

The molecule B5 came in with an EC50 of 0.176 µg/mL.

The next assay concerns the target T3, rhesus macaque TNFα (rhesus macaque, UniProt P48094 77-233).
T3 construct: Bought protein; also called rhesus macaque monkey TNFα (R&D Systems, Cat# 1070-RM)
Kind of assay: antigen-down ELISA, plate coated with rhesus macaque TNFα. How it is done: as §1
As for B1, the midpoint of the response, the EC50, lay at 0.141 µg/mL.

Turning to B2, the EC50 stood at 0.156 µg/mL.

B3 gave an EC50 of 0.162 µg/mL.

For the molecule B6, the half-maximal effective concentration (EC50) is 0.115 µg/mL.

In turn, B4 had an EC50 of 0.144 µg/mL.

Molecule B5 displayed an EC50 of 0.161 µg/mL.
